Measurements reported in patent US20140112919A1.

T1: recombinant mouse IL-10 (mouse) (UniProt P18893)
T1 sequence: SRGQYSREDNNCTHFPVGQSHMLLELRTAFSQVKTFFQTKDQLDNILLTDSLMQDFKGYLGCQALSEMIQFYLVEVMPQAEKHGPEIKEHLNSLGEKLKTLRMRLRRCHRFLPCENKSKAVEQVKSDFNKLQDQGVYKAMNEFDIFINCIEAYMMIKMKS


What was measured:
[1] = biological target: recombinant human IL-10 (human) (UniProt P22301)
[2] = biological target: recombinant human IL-10 (human) (UniProt P22301); assay: KinExA, mean (n)
[3] = biological target: recombinant human IL-10 (human) (UniProt P22301); assay: Biacore, mean ± S.D. (n); format not described
[4] = biological target: T1, recombinant mouse IL-10 (mouse); assay: Biacore, mean ± S.D. (n); format not described
[5] = biological target: recombinant cyno IL-10 (cyno) (UniProt P79338); assay: Biacore, mean ± S.D. (n); format not described
[6] = biological target: rat anti hIL-10 mAb 12G8; assay: competitive ECLA (IGEN): unlabeled IL-10 titrated against hIL-10-biotin for binding to rat 12G8

Chain of recombinant cyno IL-10 (cyno) (P79338 19-178 limits assumed): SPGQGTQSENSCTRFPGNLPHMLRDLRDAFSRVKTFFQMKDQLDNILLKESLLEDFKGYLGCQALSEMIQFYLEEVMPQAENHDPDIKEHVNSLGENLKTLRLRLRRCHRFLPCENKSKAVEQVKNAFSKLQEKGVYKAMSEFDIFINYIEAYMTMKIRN

Bioassay IC50(pM) [1] [pM]	Kd [2] [nM]	Kd [3] [nM]	Kd [4] [nM]	Kd [5] [nM]	IC50 [6] [nM]	Binder
93						humanized anti-human IL-10 antibody SCH 708980 (12G8) (antibody, V domains shown) VH: QVQLVESGGGVVQPGRSLRLSCAASGFTFSDYHMAWVRQAPGKGLEWVASITLDATYTYYRDSVRGRFTISRDNSKNTLYLQMNSLRAEDTAVYYCARHRGFSVWLDYWGQGTLVTVSS VL: DIQMTQSPSSLSASVGDRVTITCKTSQNIFENLAWYQQKPGKAPKLLIYNASPLQAGVPSRFSGSGSGTDFTLTISSLQPEDFATYYCHQYYSGYTFGPGTKLELKR
66	0.023	0.277	7.4	0.33		rat anti hIL-10 mAb 12G8 (antibody, from a related filing, V domains shown) VH: EVQLVESGGGLVRPGGSLRLSCTASGFTFSDYHMAWVRQSPDKGLEWVASITLDATYTYYRDSVRGRFTISRNNAKTTLYLQMDSLRSEDTATFYCTRHRGFSVWLDYWGQGVMVTVSS VL: DIQMTQSPSLLSASVGDRVTLNCKTSQNIFENLAWYQQKLREPPKLLIFNASPLQAGIPSRFSGSGSGTDFTLTITSLQPEDVATYFCHQYYSGYTFGPGTKLELKR
					37.9	recombinant mouse IL-10 (ligand) SRGQYSREDNNCTHFPVGQSHMLLELRTAFSQVKTFFQTKDQLDNILLTDSLMQDFKGYLGCQALSEMIQFYLVEVMPQAEKHGPEIKEHLNSLGEKLKTLRMRLRRCHRFLPCENKSKAVEQVKSDFNKLQDQGVYKAMNEFDIFINCIEAYMMIKMKS
